1 molecule from patent publication US20210140973A1 (NITTO BOSEKI, published 2021) can be followed below.

Residue numbers refer to the chain shown, from its start.

Holding throughout (assay): Western blot: E. coli lysate with the GST-tagged peptide, SDS-PAGE, PVDF membrane, POD-labelled antibody diluted 1000-fold, ECL
On the technique in general: In western blotting, separated proteins are transferred to a membrane and probed.

The target of assay [1] is T1, GST-tagged peptide H12 (positions 99 to 220 of the human IgG4 heavy chain constant region) (human, UniProt P01861 99-220 = IgG part).
T1 construct: E. coli lysate on Western blot; not shown: GST tag (glutathione S-transferase) linked to the N terminal, expressed from vector pGEX-6P-1
As to the method: (§1) Based on the designed amino acid sequences, base sequences suitable for expressing protein in E. coli were designed according to the protocol of GenScript Corporation, thereby preparing vector pGEX-6P-1 (GE Healthcare Bio-Sciences Corp.) to which the respective base sequences are inserted. The prepared expression plasmid was introduced to E. coli BL 21 strain, thereby obtaining a transformant. The transformant was cultured by an ordinary method and a protein expression was induced by IPTG. After the cells were collected by centrifugation, the cells were dissolved with an ordinary lysis solution, and subjected to ultrasonication. 6 μL of an SDS sample buffer solution was added to 6 μL of the obtained lysate. The respective prepared samples were subjected to a heat treatment at 95° C. for 5 minutes. 10 μL of the E. coli disrupted sample was added to each well of 5 to 20% electrophoresis gel (Atto Corportation) to which an SDS electrophoresis buffer solution was added. Similarly, a molecular weight standard (Bio-Rad Laboratories, Inc.) was added to each well and electrophoresed. After completing the electrophoresis, the electrophoresis gel was transcribed to a PVDF membrane (Millipore Corporation) with a transfer buffer solution. The PVDF membrane was immersed in a membrane blocking buffer solution, and then shaking was carried out at room temperature for 30 minutes. Amino groups of MaI4-08, MaI4-09, and MaI4-05-produced antibodies were subjected to a POD labeling treatment with a POD labeling kit (Dojindo Molecular Technologies, Inc.). The obtained labeled antibodies each were diluted 1000-fold by PBST. After the PVDF membrane was cleaned with PBST, the antibody solutions prepared each were added to the PVDF membrane, and then the reaction was performed at room temperature for 1 hour. After the PVDF membrane was cleaned by PBST, a signal was detected with ECL Prime Western Blotting Detection Reagents (GE Healthcare) with Image Quant Las4000.

Assay [2] addresses T2, GST-tagged peptide H36 (positions 221 to 327 with the human IgG4 specific sequence replaced by the … (human, UniProt P0DOX5 343-449 = IgG part)).
T2 construct: not shown: GST tag (glutathione S-transferase) linked to the N terminal, expressed from vector pGEX-6P-1
As to the method:
as §1

Assay [3] deals with T3, GST-tagged peptide H4 (positions 1 to 165 of the human IgG4 heavy chain constant region) (human, UniProt P01861 1-165 = IgG part).
T3 construct: E. coli lysate on Western blot; not shown: GST tag (glutathione S-transferase) linked to the N terminal, expressed from vector pGEX-6P-1
Here is the method: as §1

Assay [4] concerns the target T4, H-39.
T4 construct: not shown: N-terminal GST tag and the vector-coded linker of pGEX-6P-1
T4 chain: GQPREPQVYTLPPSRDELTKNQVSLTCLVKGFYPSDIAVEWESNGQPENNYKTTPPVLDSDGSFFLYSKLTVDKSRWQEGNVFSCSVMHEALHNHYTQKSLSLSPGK
As to the method: as §1

Assay [5] has as its target T5, GST-tagged peptide H3 (positions 1 to 220 of the human IgG4 heavy chain constant region) (human, UniProt P01861 1-220 = IgG part).
T5 construct: E. coli lysate on Western blot; not shown: GST tag (glutathione S-transferase) linked to the N terminal, expressed from vector pGEX-6P-1
Here is the method: as §1

The target in assay [6] is T6, GST-tagged peptide H7 (positions 56 to 327 of the human IgG4 heavy chain constant region) (human, UniProt P01861 56-325 = IgG part).
T6 construct: E. coli lysate on Western blot; not shown: GST tag (glutathione S-transferase) linked to the N terminal, expressed from vector pGEX-6P-1
Here is the method: as §1

Assay [7] deals with T7, GST-tagged peptide H31 (H10 with arginine for glutamine at position 235) (human, UniProt P01861 221-325 = IgG part).
T7 construct: not shown: GST tag (glutathione S-transferase) linked to the N terminal, expressed from vector pGEX-6P-1
T7 chain: T4 chain with D16E, L18M, K69R, P105L
Here is the method:
as §1

The target in assay [8] is T8, GST-tagged peptide H5 (positions 1 to 110 of the human IgG4 heavy chain constant region) (human, UniProt P01861 1-110 = IgG part).
T8 construct: E. coli lysate on Western blot; not shown: GST tag (glutathione S-transferase) linked to the N terminal, expressed from vector pGEX-6P-1
Here is the method: as §1

Assay [9] has as its target T9, GST-tagged peptide H10 (positions 221 to 327 of the human IgG4 heavy chain constant region, CH3 region) (human, UniProt P01861 221-325 = IgG part).
T9 construct: E. coli lysate on Western blot; not shown: GST tag (glutathione S-transferase) linked to the N terminal, expressed from vector pGEX-6P-1
Here is the method: as §1

In assay [10] the target is T10, GST-tagged peptide H34 (H10 with proline for leucine at position 325) (human, UniProt P01861 221-324 = IgG part).
T10 construct: not shown: GST tag (glutathione S-transferase) linked to the N terminal, expressed from vector pGEX-6P-1
As to the method:
as §1

The target in assay [11] is T11, GST-tagged peptide H8 (positions 111 to 327 of the human IgG4 heavy chain constant region) (human, UniProt P01861 111-325 = IgG part).
T11 construct: E. coli lysate on Western blot; not shown: GST tag (glutathione S-transferase) linked to the N terminal, expressed from vector pGEX-6P-1
As to the method:
as §1

Assay [12] addresses T12, GST-tagged peptide H9 (positions 166 to 327 of the human IgG4 heavy chain constant region) (human, UniProt P01861 166-325 = IgG part).
T12 construct: E. coli lysate on Western blot; not shown: GST tag (glutathione S-transferase) linked to the N terminal, expressed from vector pGEX-6P-1
Here is the method: as §1

T8 sequence (P01861 1-110): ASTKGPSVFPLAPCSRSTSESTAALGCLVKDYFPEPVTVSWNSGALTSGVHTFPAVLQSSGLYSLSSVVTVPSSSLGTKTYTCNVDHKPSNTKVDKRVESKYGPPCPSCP
T3 sequence (P01861 1-165): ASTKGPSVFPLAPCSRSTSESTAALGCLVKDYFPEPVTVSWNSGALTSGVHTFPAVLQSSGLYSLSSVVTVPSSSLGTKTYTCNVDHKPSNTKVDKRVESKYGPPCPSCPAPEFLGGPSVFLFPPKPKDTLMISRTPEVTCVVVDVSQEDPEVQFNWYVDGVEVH
T1 sequence (P01861 99-220): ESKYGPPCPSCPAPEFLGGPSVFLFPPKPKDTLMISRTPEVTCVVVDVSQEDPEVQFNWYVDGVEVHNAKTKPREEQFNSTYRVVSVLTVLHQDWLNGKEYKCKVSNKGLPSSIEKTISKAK
T5 sequence (P01861 1-220): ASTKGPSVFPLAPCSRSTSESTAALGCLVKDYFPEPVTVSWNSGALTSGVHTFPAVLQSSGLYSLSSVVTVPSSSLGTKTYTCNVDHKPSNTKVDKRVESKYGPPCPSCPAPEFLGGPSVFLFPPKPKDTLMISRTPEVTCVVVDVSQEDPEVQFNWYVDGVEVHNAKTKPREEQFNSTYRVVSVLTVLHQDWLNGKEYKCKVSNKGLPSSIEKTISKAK
T12 sequence (P01861 other isoform, or with tags, fused parts or gaps): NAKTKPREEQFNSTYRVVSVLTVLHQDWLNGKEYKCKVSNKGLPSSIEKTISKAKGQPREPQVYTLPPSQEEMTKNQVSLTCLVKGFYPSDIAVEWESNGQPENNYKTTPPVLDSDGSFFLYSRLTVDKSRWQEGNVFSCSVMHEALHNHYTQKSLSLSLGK
T11 sequence (P01861 other isoform, or with tags, fused parts or gaps): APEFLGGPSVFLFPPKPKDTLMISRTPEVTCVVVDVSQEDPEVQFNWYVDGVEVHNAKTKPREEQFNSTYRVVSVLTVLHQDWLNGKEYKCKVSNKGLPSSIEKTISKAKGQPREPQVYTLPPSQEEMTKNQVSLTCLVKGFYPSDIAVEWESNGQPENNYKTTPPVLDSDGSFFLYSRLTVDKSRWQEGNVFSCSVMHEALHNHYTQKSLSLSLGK

B1: MaI4-08-produced antibody (antibody, IgG1, V domains shown)
VH: EVQLQQSGPELVKPGTSVKMSCKASGYIFTSYILHWVKQKPGQGLEWIAYINPYNDGTKYKEKFKGKGTLTSDKSSSTAYMELSSLTSEDSAVYYCARSGGGYGNYAWFAYWGPGTLVTVST
VL: DIQMTQSPSSLSASLGERVSLTCRASQDIGSSLNWLQQEPDGTIKRLIYATSSLDSGVPKRFSGSRSGSDYSLTISSLESEDFVDYYCLQYASYPPTFGAGTKLELK
notes: Purified on protein G from hybridoma culture supernatant; POD-labelled for the Western blots
On to B1, for which the binding result in assay [1] is given as “no binding”; in [2], “no binding”; in assay [3], “no binding”; in assay [4], “binds”; in assay [5], “no binding”; in assay [6], “binds”. Besides, the binding result in assay [7] was “binds”; in [8] it was “no binding”; in assay [9], “binds”; in assay [10], “binds”; in [11] it was “binds”; in assay [12], “binds”.
